Data on one protein can be found in article PMC3466216, “The CRISPR Associated Protein Cas4 Is a 5′ to 3′ DNA Exonuclease with an Iron-Sulfur Cluster” (PLoS ONE, 2012).

The data set concerns the molecule itself. Description: SEC; calibrated Superose-12 column, buffer E (20 mM Tris-HCl pH 7.5, 250 mM NaCl, 10% glycerol), flow rate 0.8 ml/min; self-association, size of the oligomer not determined. For orientation: Size exclusion chromatography separates by hydrodynamic size, large species first.

B1: Sso0001 (Cas4 family protein from Sulfolobus solfataricus) (enzyme, Sulfolobus solfataricus P2, UniProt Q97TX9 1-202, looked up)
chain: MITEFLLKKKLEEHLSHVKEENTIYVTDLVRCPRRVRYESEYKELAISQVYAPSAILGDILHLGLESVLKGNFNAETEVETLREINVGGKVYKIKGRADAIIRNDNGKSIVIEIKTSRSDKGLPLIHHKMQLQIYLWLFSAEKGILVYITPDRIAEYEINEPLDEATIVRLAEDTIMLQNSPRFNWECKYCIFSVICPAKLT
notes: Sso0001, Cas4 family protein of Sulfolobus solfataricus P2; the sso0001 gene was amplified from the genome with primers that begin at the start codon and end after the stop codon; a single subunit is printed as 23 kDa; Carries an iron-sulfur cluster (mean 4.3 iron atoms per protein, consistent with 4Fe:4S); No removal of the tag is described; The size of the oligomer was not determined; also …
As for B1, the binding result was “binds”.
